Assay [1] has as its target T1, FcγRIIIa V158 on NF-κB-RE nanoluciferase reporter cells (UniProt P08637 17-254). The experiment in a line: cell-based or functional assay.
For assay [2], the target named is T1, FcγRIIIa V158 on NF-κB-RE …. The assay can be described thus: cell-based or functional assay. The source holds these as a separate data set.
In assay [3] the target is T2, SARS-CoV-2 spike protein expressed on Ramos-S cells (SARS-CoV-2, UniProt P0DTC2 14-1273).
T2 construct: whole, on cells; also called S protein; Ramos cells expressing transfected spike protein
The assay can be described thus: flow cytometry on Ramos-S cells. A general note: A flow cytometer gives signals particle by particle.

For assay [4], the target named is T3, dimeric rsFcγRIIa (H131 allelic form) (UniProt P12318 34-217).
T3 construct: also called dimeric recombinant soluble FcγRIIa
T3 sequence: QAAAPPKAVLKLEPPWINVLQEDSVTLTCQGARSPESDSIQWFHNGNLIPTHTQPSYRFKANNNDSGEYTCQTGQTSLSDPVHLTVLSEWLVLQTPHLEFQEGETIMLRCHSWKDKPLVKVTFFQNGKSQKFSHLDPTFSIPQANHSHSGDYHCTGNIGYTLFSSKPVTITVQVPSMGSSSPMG
The assay can be described thus: flow cytometry: Ramos-S cells opsonised with the ACE2-Fc protein, biotinylated dimeric rsFcγRIIa probe, streptavidin-APC.

Assay [5] addresses human death receptor 5 (DR5) on cells (human, UniProt O14763 56-440). The experiment in a line: cell-based or functional assay.

Read-outs that look alike come from different tables or passages of the source. Where only a bound is given, the exact number is not on record here.

T1 sequence (P08637 17-254 F176V limits assumed): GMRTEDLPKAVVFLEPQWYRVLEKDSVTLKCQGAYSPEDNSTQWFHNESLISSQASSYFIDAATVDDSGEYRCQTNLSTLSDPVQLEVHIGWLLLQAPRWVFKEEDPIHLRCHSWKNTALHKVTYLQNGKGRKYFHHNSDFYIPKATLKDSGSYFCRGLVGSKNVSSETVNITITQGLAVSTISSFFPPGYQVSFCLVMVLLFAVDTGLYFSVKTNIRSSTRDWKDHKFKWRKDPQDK

B1: rituximab-WT (antibody, human IgG1, kappa)
heavy: not shown
light: QIVLSQSPAILSASPGEKVTMTCRASSSVSYIHWFQQKPGSSPKPWIYATSNLASGVPVRFSGSGSGTSYSLTISRVEAEDAATYYCQQWTSNPPTFGGGTKVEIKRTVAAPSVFIFPPSDEQLKSGTASVVCLLNNFYPREAKVQWKVDNALQSGNSQESVTEQDSKDSTYSLSSTLTLSKADYEKHKVYACEVTHQGLSSPVTKSFNRGEC
For the molecule B1, the “EC50 (read off the curve), FcγRIIIa reporter activation” value in assay [1] is roughly 0.04 nM; in assay [2] it was roughly 0.03 nM.

B2: CC40.8-WT (antibody)
heavy: not shown
light: SYELTQPPSVSVSPGQTARITCSGDALPKRYAYWYQQKSGQAPILVIYEDKKRPSGIPERLSGSKSGTVATLTISGAQVEDEADYYCYSTDSSGNHAVFGGGTQLTVLGQPKAAPSVFIFPPSDEQLKSGTASVVCLLNNFYPREAKVQWKVDNALQSGNSQESVTEQDSKDSTYSLSSTLTLSKADYEKHKVYACEVTHQGLSSPVTKSFNRGEC
For B2, the binding result in assay [3] is given as “binds”.

B3: EflACE2-Fc-H429Y (Fc fusion)
chain: ETGSTIEEQAKYFLDKFNHEAEDLFYQSSLASWNYNTNITEENVQNMNNAGDKWSAFLKEQSTTAQMYPLQEIQNLTVKLQLQALQQNGSSVLSEDKSKRLNTILNTMSTIYSTGKVCNPDNPQECLLLEPGLNEIMANSLDYNERLWAWESWRSEVGKQLRPLYEEYVVLKNEMARANHYEDYGDYWRGDYEVNGVDGYDYSRGQLIEDVEHTFEEIKPLYEHLHAYVRAKLMNAYPSYISPIGCLPAHLLGDMWGRFWTNLYSLTVPFGQKPNIDVTDAMVDQAWDAQRIFKEAEKFFVSVGLPNMTQGFWEYSMLTDPGNVQKAVCHPTAWDLGKGDFRILMCTKVTMDDFLTAHHEMGHIQYDMAYAAQPFLLRNGANEGFHEAVGEIMSLSAATPKHLKSIGLLSPDFQEDNETEINFLLKQALTIVGTLPFTYMLEKWRWMVFKGEIPKDQWMKKWWEMKREIVGVVEPVPHDETYCDPASLFHVSNDYSFIRYYTRTLYQFQFQEALCQAAKHEGPLHKCDISNSTEAGQKLFNMLRLGKSEPWTLALENVVGAKNMNVRPLLNYFEPLFTWLKDQNKNSFVGWSTDWSPYADQSIKVRISLKSALGDRAYEWNDNEMYLFRSSVAYAMRQYFLKVKNQMILFGEEDVRVANLKPRISFNFFVTAPKNVSDIIPRTEVEKAIRMSRSRINDAFRLNDNSLEFLGIQPTLGPPNQPPVSGGGGSTHTCPPCPAPELLGGPSVFLFPPKPKDTLMISRTPEVTCVVVDVSHEDPEVKFNWYVDGVEVHNAKTKPREEQYNSTYRVVSVLTVLHQDWLNGKEYKCKVSNKALPAPIEKTISKAKGQPREPQVYTLPPSREEMTKNQVSLTCLVKGFYPSDIAVEWESNGQPENNYKTTPPVLDSDGSFFLYSKLTVDKSRWQQGNVFSCSVMYEALHNHYTQKSLSLSPGK
notes: also called EflACE2-Fc-H429Yoli; Yoli
Consider B3, for which, in assay [4], the binding result is recorded as “no binding (tested: 5 µg/ml (opsonising protein))”.

B4: TDR5-A2WT (antibody)
heavy: QVQLVQSGAEVKKPGASVKVSCKASGFNIKDTHMHWVRQAPGQRLEWIGRIDPANGNTEYDQKFQGRVTITVDTSASTAYMELSSLRSEDTAVYYCARWGTNVYFAYWGQGTLVTVSSASPTSPKVFPLSLDSTPQDGNVVVACLVQGFFPQEPLSVTWSESGQNVTARNFPPSQDASGDLYTTSSQLTLPATQCPDGKSVTCHVKHYTNPSQDVTVPCPVPPPPPCCHPRLSLHRPALEDLLLGSEANLTCTLTGLRDASGATFTWTPSSGKSAVQGPPERDLCGCYSVSSVLPGCAQPWNHGETFTCTAAHPELKTPLTANITKSGNTFRPEVHLLPPPSEELALNELVTLTCLARGFSPKDVLVRWLQGSQELPREKYLTWASRQEPSQGTTTFAVTSILRVAAEDWKKGDTFSCMVGHEALPLAFTQKTIDRLAG
light: DIQLTQSPSSLSASVGDRVTITCSASSSVSYMYWYQQKPGKAPKPWIYRTSNLASGVPSRFSGSGSGTDFTLTISSLQPEDFATYYCQQYHSYPPTFGGGTKVEIKRTVAAPSVFIFPPSDEQLKSGTASVVCLLNNFYPREAKVQWKVDNALQSGNSQESVTEQDSKDSTYSLSSTLTLSKADYEKHKVYACEVTHQGLSSPVTKSFNRGEC
Take B4: the “death of Colo205 cells, EC50 as dilution of culture supernatant” value in assay [5] was roughly 0.167 dilution.

B5: TDR5-A2HF (antibody)
heavy: QVQLVQSGAEVKKPGASVKVSCKASGFNIKDTHMHWVRQAPGQRLEWIGRIDPANGNTEYDQKFQGRVTITVDTSASTAYMELSSLRSEDTAVYYCARWGTNVYFAYWGQGTLVTVSSASPTSPKVFPLSLDSTPQDGNVVVACLVQGFFPQEPLSVTWSESGQNVTARNFPPSQDASGDLYTTSSQLTLPATQCPDGKSVTCHVKHYTNPSQDVTVPCPVPPPPPCCHPRLSLHRPALEDLLLGSEANLTCTLTGLRDASGATFTWTPSSGKSAVQGPPERDLCGCYSVSSVLPGCAQPWNHGETFTCTAAHPELKTPLTANITKSGNTFRPEVHLLPPPSEELALNELVTLTCLARGFSPKDVLVRWLQGSQELPREKYLTWASRQEPSQGTTTFAVTSILRVAAEDWKKGDTFSCMVGFEALPLAFTQKTIDRLAG
light: DIQLTQSPSSLSASVGDRVTITCSASSSVSYMYWYQQKPGKAPKPWIYRTSNLASGVPSRFSGSGSGTDFTLTISSLQPEDFATYYCQQYHSYPPTFGGGTKVEIKRTVAAPSVFIFPPSDEQLKSGTASVVCLLNNFYPREAKVQWKVDNALQSGNSQESVTEQDSKDSTYSLSSTLTLSKADYEKHKVYACEVTHQGLSSPVTKSFNRGEC
Regarding B5, the “death of Colo205 cells, EC50 as dilution of culture supernatant” value in assay [5] is greater than 0.00195 dilution.

Source of the values: patent publication US20260158160A1 (MACFARLANE BURNET INSTITUTE FOR MEDICAL RESEARCH AND PUBLIC …, published 2026).
